# Test results as given in the RNAGym collection of RNA variant scans (doi:10.1021/acssynbio.7b00057).
# B1: Pistol ribozyme (parent)
# chain: GGGUCGUUGUUCCAUAAUCGCGUGGAUAUGGCACGCAAGUUUCUACCGGGCACCGUAAAUGUCCGACUGGAGCCGUUCGGGCGGCUAUAAACAGACCUCAGGCCCGAAGCGUGGCGGCACCUGCCGCCGGUGGUAAAAAAGAUCGGAAGAGCACACGUCU
# Variants of: B1
# Test: aptazyme ON/OFF ratio, guanine; higher = stronger switching; co-transcriptional cleavage with and without guanine
row,Variant,aptazyme ON/OFF ratio
1,U7A U8A U10G U11A C13G,1.16
2,U7A U8A U10G U11A C13A,1.19
3,U7A U8C G9A U10C U11A C13G,1.17
4,U7A U8C G9A U10C U11A C13U,1.28
5,U7A U8C G9A U10C U11A C13A,1.18
6,U7A U8C G9A U10A U11C C13U,1.04
7,U7A U8C G9A U10A U11C C13G,1.03
8,U7A U8C G9A U10A U11C C13A,1.02
9,U7A U8C G9A U10A U11A C12U,1.25
10,U7A U8C G9A U10A U11A C12A,1.31
11,U7A U8C G9A U10A U11A C12G,1.24
12,U7A U8C G9A U10G C12A C13A,1.24
13,U7A U8C G9A U10G C12A C13G,1.2
14,U7A U8C G9A U10G C12A C13U,1.19
15,U7A U8A U10G U11G C12G C13U,1.4
16,U7A U8A U10G U11G C12G C13A,1.07
17,U7A U8A U10G U11G C12G C13G,1.09
18,U7A U8C G9A U10A U11G C12U C13U,1.31
19,U7A U8C G9A U10A U11G C12U C13A,1.2
20,U7A U8C G9A U10A U11G C12U C13G,1.24
21,U7A U8C G9A U11C C12A C13A,1.19

row,Variant,aptazyme ON/OFF ratio
1,U7A U8C G9A U11C C12A C13U,1.23
2,U7A U8C G9A U11C C12A C13G,1.16
3,U7A U8C G9A U10A U11A C12G C13U,1.21
4,U7A U8C G9A U10A U11A C12G C13A,1.11
5,U7A U8C G9A U10A U11A C12G C13G,1.13
6,U7A U8C C12A C13A,1.28
7,U7A U8C C12A C13G,1.11
8,U7A U8C C12A C13U,1.24
9,U7A U8C G9A U10C C13U,1.12
10,U7A U8C G9A U10C C13A,1.09
11,U7A U8C G9A U10C C13G,1.07
12,U7A U8C G9A U10A U11A,1.19
13,U7A U8C G9A U10A U11G,1.26
14,U7A U8C G9A U10A U11C,1.07
15,U7A U8C G9A U10G U11A C13U,1.04
16,U7A U8C G9A U10G U11A C13G,1.05
17,U7A U8C G9A U10G U11A C13A,1.04
18,U7A U8A U10G U11A C12U C13G,1.27
19,U7A U8A U10G U11A C12U C13U,1.11
20,U7A U8A U10G U11A C12U C13A,1.35
21,U7A U8A U11G C12G,1.27

row,Variant,aptazyme ON/OFF ratio
1,U7A U8A U11G C12A,1.13
2,U7A U8A U11G C12U,1.27
3,U7A U8C G9A U10C C12A C13G,1.18
4,U7A U8C G9A U10C C12A C13U,1.13
5,U7A U8C G9A U10C C12A C13A,1.2
6,U7A U8C C12G C13A,1.18
7,U7A U8C C12G C13U,1.35
8,U7A U8C C12G C13G,1.19
9,U7A U8A U11G C12A C13A,1.15
10,U7A U8A U11G C12A C13U,1.46
11,U7A U8A U11G C12A C13G,1.11
12,U7A U8A U11G C13G,1.1
13,U7A U8A U11G C13A,1.16
14,U7A U8A U11G C13U,1.2
15,U7A U8C G9A U10G U11G C12U,1.39
16,U7A U8C G9A U10G U11G C12A,1.11
17,U7A U8C G9A U10G U11G C12G,1.44
18,U7A U8A U10G U11C C13A,1.17
19,U7A U8A U10G U11C C13U,1.04
20,U7A U8A U10G U11C C13G,1.11
21,U7A U8C G9A U10A U11C C12G,1.21

row,Variant,aptazyme ON/OFF ratio
1,U7A U8C G9A U10A U11C C12U,1.09
2,U7A U8C G9A U10A U11C C12A,1.15
3,U7A U8C G9A U10A U11G C12A,1.06
4,U7A U8C G9A U10A U11G C12G,1.16
5,U7A U8C G9A U10A U11G C12U,1.45
6,U7A U8C G9A U10G U11A C12U C13G,1.14
7,U7A U8C G9A U10G U11A C12U C13U,1.11
8,U7A U8C G9A U10G U11A C12U C13A,1.19
9,U7A U8C,1.98
10,U7A U8C G9A U10A C12U C13A,1.11
11,U7A U8C G9A U10A C12U C13G,1.2
12,U7A U8C G9A U10A C12U C13U,1.12
13,U7A U8C G9A C12U C13A,1.07
14,U7A U8C G9A C12U C13G,1.09
15,U7A U8C G9A C12U C13U,1.1
16,U7A U8C G9A U10G C13A,1.17
17,U7A U8C G9A U10G C13G,1.2
18,U7A U8C G9A U10G C13U,1.09
19,U7A U8C G9A U10G U11G C13G,1.15
20,U7A U8C G9A U10G U11G C13U,1.18
21,U7A U8C G9A U10G U11G C13A,1.25
